# The RNAGym collection of RNA variant scans (doi:10.7554/elife.80360)
# B1: CPEB3 Ribozyme (parent)
# chain: GGGGGCCACAGCAGAAGCGUUCACGUCGCGGCCCCUGUCAGAUUCUGGUGAAUCUGCGAAUUCUGCUGU
# Variants of: B1
# Assay: self-cleavage, relative activity (ratio to wild type); higher = more cleavage; co-transcriptional
row,Variant,self-cleavage
1,G30U A60C,0.173
2,G30U A60U,0.213
3,G30C G31A,0.252
4,G30C G31C,0.136
5,G30A G68A,0.988
6,G30C C32A,0.194
7,C29G U64C,0.369
8,C29G U64G,0.279
9,C29U C34G,0.276
10,C29U C34A,0.299
11,C29U C34U,0.495
12,G30U C57A,0.235
13,G30U C57U,0.207
14,G30C A60G,0.411
15,G30C A60U,0.242
16,G30C A60C,0.285
17,G30U U53G,0.241
18,G30U U53C,0.276
19,G30U U53A,0.297
20,G30A G41A,0.382
21,G30A G41C,0.215
22,G30A U44A,0.658
23,G30A U44C,0.697
24,C29U G31U,0.221

row,Variant,self-cleavage
1,C29U G31A,0.315
2,C29G U38G,0.207
3,C29G U38C,0.302
4,C29U A52U,0.396
5,C29U A52C,0.417
6,C29U A52G,0.529
7,G30U U44G,0.308
8,G30U U44C,0.364
9,G30U U44A,0.248
10,C29G U55C,0.253
11,C29G U55G,0.171
12,C29G U55A,0.267
13,G30C U46G,0.69
14,G30U C45G,0.354
15,C29U C54U,0.448
16,C29U C54G,0.219
17,G30C G56A,0.464
18,G30U U69A,0.666
19,C29U G47C,0.62
20,C29U G47A,0.598
21,G30U A42U,0.247
22,G30U A42C,0.282
23,G30C U38G,0.204
24,G30C U38C,0.379

row,Variant,self-cleavage
1,G30C U38A,0.314
2,G30C A40C,0.197
3,G30C A40G,0.462
4,G30C U49A,0.686
5,G30C U49C,0.721
6,G30C U49G,0.564
7,C29U G41C,0.173
8,C29U G41A,0.184
9,C29U U44G,0.3
10,C29U U44C,0.311
11,G30U G68C,0.825
12,G30A U67A,0.901
13,G30A U67G,0.948
14,G30U G56A,0.218
15,G30U G56C,0.196
16,G30C A51C,0.614
17,G30C A51G,0.628
18,C29U U43C,0.301
19,G30A A52U,0.806
20,G30A A52C,0.739
21,G30U C39G,0.29
22,G30U C39U,0.252
23,G30U C39A,0.273
24,C29G U46A,0.707

row,Variant,self-cleavage
1,C29G U46G,0.603
2,G30U U64G,0.219
3,G30U U64A,0.288
4,G30C C45U,0.603
5,G30C C45A,0.51
6,G30U C33G,0.192
7,G30U C33U,0.295
8,G30U C33A,0.233
9,G30U G31A,0.196
10,G30U G31C,0.149
11,C29U G50C,0.321
12,C29U G50U,0.517
13,C29U G50A,0.524
14,C29U U55C,0.199
15,C29U U55G,0.167
16,C29U U55A,0.173
17,G30U G65C,0.214
18,G30U G65U,0.162
19,G30A A60C,0.261
20,G30A C33A,0.203
21,G30A C33U,0.691
22,G30U G48A,0.455
23,G30U G48U,0.393
24,G30U G48C,0.416

row,Variant,self-cleavage
1,C29U A60U,0.23
2,C29U A60G,0.345
3,G30A C57U,0.272
4,G30U A40G,0.341
5,G30C G47C,0.696
6,G30C G47A,0.617
7,G30C G47U,0.71
8,G30U G47U,0.417
9,G30A U43C,0.704
10,G30A U43G,0.464
11,G30A U43A,0.579
12,C29U C66A,0.235
13,C29U C66U,0.242
14,G30U U36A,0.198
15,G30U U36C,0.179
16,G30U U36G,0.175
17,C29U U62C,0.211
18,C29U U62G,0.21
19,C29U G56U,0.198
20,C29U G56A,0.244
21,G30C C39A,0.218
22,G30C C39U,0.396
23,G30A U53G,0.356
24,G30A U53C,0.604

row,Variant,self-cleavage
1,G30A U53A,0.541
2,G30C U62A,0.259
3,G30C U62G,0.343
4,C29U C39U,0.193
5,C29U C39A,0.16
6,G30U U62G,0.19
7,G30U U62C,0.211
8,C29U C32U,0.645
9,C29U C32G,0.165
10,G30A U69C,1.04
11,G30A U69A,1
12,G30A G48U,0.868
13,G30A G48C,0.901
14,G30A A51G,0.744
15,G30A A51U,0.752
16,C29U G37U,0.121
17,C29U G37C,0.162
18,C29U G37A,0.157
19,G30U U55A,0.304
20,G30U U55C,0.287
21,G30U U55G,0.232
22,G30C U61G,0.304
23,C29G U43G,0.393
24,G30A U61A,0.418

row,Variant,self-cleavage
1,G30C C35G,0.15
2,G30A C54A,0.431
3,G30A C54U,0.876
4,G30C U36A,0.192
5,G30C U36G,0.188
6,G30A U36A,0.196
7,C29U U46A,0.699
8,C29U G48U,0.583
9,C29U G48A,0.601
10,C29U A42U,0.262
11,C29U A40G,0.288
12,C29U A40C,0.203
13,C29U A40U,0.157
14,G31A A40U,0.533
15,G31A A40C,0.218
16,G31A A40G,0.771
17,G30C U43C,0.587
18,G30C U43G,0.369
19,G30C U67A,0.869
20,C29U G65A,0.19
21,C29U G65C,0.272
22,C29U G65U,0.167
23,G30A U64C,0.795
